Assay results published in patent US20030130184, “Methods of inducing cell death” (The University of Bristol, published 2003).

Molecular target: T1, HPV16 E2Ct (E2 DNA binding domain) (Human papillomavirus type 16, UniProt P0DKA0 SEQ:1-87)
T1 chain: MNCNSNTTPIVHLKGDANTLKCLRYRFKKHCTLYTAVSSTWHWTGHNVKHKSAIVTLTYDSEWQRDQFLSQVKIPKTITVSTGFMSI
Assay: EMSA; 10, 50, 250 nM protein; binds tightly; 20 mM HEPES pH 7.9, 25 mM KCl, poly[d(I-C)], 20 C; refolded E2Ct also binds (FIG. 7a)
Settings: chain copies: 2 (stated, dimer); label: 32P 5' end

B1: HPV16 E2 site 1, E2(1) (dsDNA)
DNA 1: TTGAACCGAAACCGGTTAGT
DNA 2: ACTAACCGGTTTCGGTTCAA
- binding result: binds
